# Patent publication US20200317768A1 (published 2020)
# T1: cynomolgus monkey FcγRIIa1 extracellular domain with C-terminal His-tag (cynomolgus monkey)
# T1 construct: Expressed in FreeStyle 293 cells and purified; also called cyno FcγRIIa1; cynoFcgRIIa1; not shown: C-terminal His-tag
# T1 chain: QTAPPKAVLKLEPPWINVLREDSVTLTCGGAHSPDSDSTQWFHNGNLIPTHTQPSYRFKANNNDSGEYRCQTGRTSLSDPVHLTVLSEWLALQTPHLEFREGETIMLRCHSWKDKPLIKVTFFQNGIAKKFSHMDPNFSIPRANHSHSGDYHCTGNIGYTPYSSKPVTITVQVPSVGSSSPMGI
# T2: cynomolgus monkey FcγRIIa2 extracellular domain with C-terminal His-tag (cynomolgus monkey)
# T2 construct: Expressed in FreeStyle 293 cells and purified; also called cyno FcγRIIa2; cynoFcgRIIa2; not shown: C-terminal His-tag
# T2 chain: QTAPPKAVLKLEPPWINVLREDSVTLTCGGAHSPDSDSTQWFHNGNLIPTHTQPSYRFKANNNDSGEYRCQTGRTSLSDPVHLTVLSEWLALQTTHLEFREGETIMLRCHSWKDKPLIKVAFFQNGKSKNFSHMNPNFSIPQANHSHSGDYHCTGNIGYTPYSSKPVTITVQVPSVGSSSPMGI
# T3: cynomolgus monkey FcγRIIa3 extracellular domain with C-terminal His-tag (cynomolgus monkey)
# T3 construct: Expressed in FreeStyle 293 cells and purified; also called cyno FcγRIIa3; cynoFcgRIIa3; not shown: C-terminal His-tag
# T3 chain: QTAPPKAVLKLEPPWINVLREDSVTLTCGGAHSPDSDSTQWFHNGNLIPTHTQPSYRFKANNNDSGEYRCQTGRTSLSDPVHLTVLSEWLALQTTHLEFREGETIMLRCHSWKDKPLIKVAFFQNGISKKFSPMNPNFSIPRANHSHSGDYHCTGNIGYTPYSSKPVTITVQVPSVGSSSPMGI
# T4: cynomolgus monkey FcγRIIIaS extracellular domain with C-terminal His-tag (cynomolgus monkey, UniProt Q8SPW2 21-206 at identity 1.00))
# T4 construct: Expressed in FreeStyle 293 cells and purified; also called cyno FcγRIIIaS; cynoFcγRIIIaS; not shown: C-terminal His-tag
# T4 chain: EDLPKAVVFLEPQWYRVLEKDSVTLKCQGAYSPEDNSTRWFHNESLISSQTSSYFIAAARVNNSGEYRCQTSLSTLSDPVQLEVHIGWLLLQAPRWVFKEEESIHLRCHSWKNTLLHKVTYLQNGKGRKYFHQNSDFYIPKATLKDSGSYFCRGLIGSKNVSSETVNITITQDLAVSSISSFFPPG
# T5: human FcγRIIaH extracellular domain with C-terminal His-tag (human, UniProt P12318 34-217)
# T5 construct: Expressed in FreeStyle 293 cells and purified; also called human FcγRIIa (type H); FcgRIIaH; not shown: C-terminal His-tag
# T5 sequence: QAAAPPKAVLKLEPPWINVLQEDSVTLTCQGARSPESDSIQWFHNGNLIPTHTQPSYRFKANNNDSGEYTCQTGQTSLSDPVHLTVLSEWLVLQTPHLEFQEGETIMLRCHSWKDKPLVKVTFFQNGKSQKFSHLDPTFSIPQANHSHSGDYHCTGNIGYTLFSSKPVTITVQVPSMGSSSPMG
# T6: human FcγRIIaR extracellular domain with C-terminal His-tag (human, UniProt P12318 34-217)
# T6 construct: Expressed in FreeStyle 293 cells and purified; also called human FcγRIIa (type R); FcgRIIaR; not shown: C-terminal His-tag
# T6 chain: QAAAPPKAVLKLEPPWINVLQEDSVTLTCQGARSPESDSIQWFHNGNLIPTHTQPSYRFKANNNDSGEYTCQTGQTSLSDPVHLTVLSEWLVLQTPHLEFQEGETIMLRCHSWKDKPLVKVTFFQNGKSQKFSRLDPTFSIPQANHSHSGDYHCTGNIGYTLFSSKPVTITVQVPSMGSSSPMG
# T7: human FcγRIIb extracellular domain with C-terminal His-tag (human, UniProt P31994 43-217)
# T7 construct: Expressed in FreeStyle 293 cells and purified; also called humanFcgRIIb; not shown: C-terminal His-tag
# T7 sequence: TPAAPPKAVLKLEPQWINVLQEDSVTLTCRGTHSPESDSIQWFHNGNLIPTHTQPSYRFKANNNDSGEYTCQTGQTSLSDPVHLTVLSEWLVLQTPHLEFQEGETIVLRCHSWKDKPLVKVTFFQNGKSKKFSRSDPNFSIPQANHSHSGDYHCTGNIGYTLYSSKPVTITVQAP
# Experiments:
# Assay in all cases: SPR (Biacore); KD of SG1 divided by KD of the variant for this FcgR;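 further: relative to parent M103205H795-SG1 carrying the SG1 human heavy chain constant region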
# [1] = target: T1, cynomolgus monkey FcγRIIa1 …
# [2] = target: T2, cynomolgus monkey FcγRIIa2 …
# [3] = target: T3, cynomolgus monkey FcγRIIa3 …
# [4] = target: T4, cynomolgus monkey FcγRIIIaS …
# [5] = target: T5, human FcγRIIaH extracellular domain …
# [6] = target: T6, human FcγRIIaR extracellular domain …
# [7] = target: T7, human FcγRIIb extracellular domain with …
# [8] = target: T8, human FcγRIIIaV extracellular domain with C-terminal His-tag (human, UniProt P08637 17-208)
# T8 construct: Expressed in FreeStyle 293 cells and purified; also called FcgRIIIaV; not shown: C-terminal His-tag
# T8 sequence (P08637 17-208 F176V): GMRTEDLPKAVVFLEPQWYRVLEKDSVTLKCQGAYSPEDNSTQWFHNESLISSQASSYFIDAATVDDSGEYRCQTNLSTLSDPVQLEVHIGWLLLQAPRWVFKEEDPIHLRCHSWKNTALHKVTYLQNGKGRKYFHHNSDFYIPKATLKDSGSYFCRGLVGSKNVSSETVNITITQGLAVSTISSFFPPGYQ
KD fold (SG1 = 1) [1] [fold],KD fold (SG1 = 1) [2] [fold],KD fold (SG1 = 1) [3] [fold],KD fold (SG1 = 1) [4] [fold],KD fold (SG1 = 1) [5] [fold],KD fold (SG1 = 1) [6] [fold],KD fold (SG1 = 1) [7] [fold],KD fold (SG1 = 1) [8] [fold],Binder
1.4,2.2,1.8,0.09,0.5,0.4,3.3,0.11,"M103205H795-MY181 / M103202L889-SK1 (antibody, human IgG1, kappa, Position 396 variant derived from MY052, expressed with M103202L889-SK1 as light chain) heavy: QVTLKESGPVLVKPTETLTLTCTVSGIDLSHDDISWVRQAPGKGLEWVGIISYAGSTYYASWAKGRLTISKDTSKNQVVLTMTNMDPVDTATYYCARGVPAYSHGGDLWGQGTLVTVSSASTKGPSVFPLAPSSKSTSGGTAALGCLVKDYFPEPVTVSWNSGALTSGVHTFPAVLQSSGLYSLSSVVTVPSSSLGTQTYICNVNHKPSNTKVDKKVEPKSCDKTHTCPPCPAPELLNGPSVFLFPPKPKDTLMISRTPEVTCVVVDVSEEDPEVKFNWYVDGVEVHNAKTKPREEQYNSTYRVVSVLTVLHQDWLNGKEYKCKVSNKALPAPIEKTISKAKGQPREPQVYTLPPSREEMTKNQVSLTCLVKGFYPSDIAVEWESNGQPENNYKTTPTVLDSDGSFFLYSKLTVDKSRWQQGNVFSCSVMHEALHNHYTQKSLSLSP light: DIVMTQSPATLSLSPGERATLSCTSSQSVYHANWLSWFQQKPGQPPKLLIYWASTLAYGVPSRFSGSGSGTDFTLTISSLQPEDAATYYCAGGYGGGRYAFGQGTKVEIKRTVAAPSVFIFPPSDEQLKSGTASVVCLLNNFYPREAKVQWKVDNALQSGNSQESVTEQDSKDSTYSLSSTLTLSKADYEKHKVYACEVTHQGLSSPVTKSFNRGEC"
1.5,2.3,2.2,0.1,0.5,0.5,3.8,0.12,"M103205H795-MY182 / M103202L889-SK1 (antibody, human IgG1, kappa, Position 396 variant derived from MY052, expressed with M103202L889-SK1 as light chain) heavy: QVTLKESGPVLVKPTETLTLTCTVSGIDLSHDDISWVRQAPGKGLEWVGIISYAGSTYYASWAKGRLTISKDTSKNQVVLTMTNMDPVDTATYYCARGVPAYSHGGDLWGQGTLVTVSSASTKGPSVFPLAPSSKSTSGGTAALGCLVKDYFPEPVTVSWNSGALTSGVHTFPAVLQSSGLYSLSSVVTVPSSSLGTQTYICNVNHKPSNTKVDKKVEPKSCDKTHTCPPCPAPELLNGPSVFLFPPKPKDTLMISRTPEVTCVVVDVSEEDPEVKFNWYVDGVEVHNAKTKPREEQYNSTYRVVSVLTVLHQDWLNGKEYKCKVSNKALPAPIEKTISKAKGQPREPQVYTLPPSREEMTKNQVSLTCLVKGFYPSDIAVEWESNGQPENNYKTTPVVLDSDGSFFLYSKLTVDKSRWQQGNVFSCSVMHEALHNHYTQKSLSLSP light: DIVMTQSPATLSLSPGERATLSCTSSQSVYHANWLSWFQQKPGQPPKLLIYWASTLAYGVPSRFSGSGSGTDFTLTISSLQPEDAATYYCAGGYGGGRYAFGQGTKVEIKRTVAAPSVFIFPPSDEQLKSGTASVVCLLNNFYPREAKVQWKVDNALQSGNSQESVTEQDSKDSTYSLSSTLTLSKADYEKHKVYACEVTHQGLSSPVTKSFNRGEC"

# Further lines, the binder ahead of its results:
Binder,KD fold (SG1 = 1) [1] [fold],KD fold (SG1 = 1) [2] [fold],KD fold (SG1 = 1) [3] [fold],KD fold (SG1 = 1) [4] [fold],KD fold (SG1 = 1) [5] [fold],KD fold (SG1 = 1) [6] [fold],KD fold (SG1 = 1) [7] [fold],KD fold (SG1 = 1) [8] [fold]
"M103205H795-MY179 / M103202L889-SK1 (antibody, human IgG1, kappa, Position 396 variant derived from MY052, expressed with M103202L889-SK1 as light chain) heavy: QVTLKESGPVLVKPTETLTLTCTVSGIDLSHDDISWVRQAPGKGLEWVGIISYAGSTYYASWAKGRLTISKDTSKNQVVLTMTNMDPVDTATYYCARGVPAYSHGGDLWGQGTLVTVSSASTKGPSVFPLAPSSKSTSGGTAALGCLVKDYFPEPVTVSWNSGALTSGVHTFPAVLQSSGLYSLSSVVTVPSSSLGTQTYICNVNHKPSNTKVDKKVEPKSCDKTHTCPPCPAPELLNGPSVFLFPPKPKDTLMISRTPEVTCVVVDVSEEDPEVKFNWYVDGVEVHNAKTKPREEQYNSTYRVVSVLTVLHQDWLNGKEYKCKVSNKALPAPIEKTISKAKGQPREPQVYTLPPSREEMTKNQVSLTCLVKGFYPSDIAVEWESNGQPENNYKTTPRVLDSDGSFFLYSKLTVDKSRWQQGNVFSCSVMHEALHNHYTQKSLSLSP light: DIVMTQSPATLSLSPGERATLSCTSSQSVYHANWLSWFQQKPGQPPKLLIYWASTLAYGVPSRFSGSGSGTDFTLTISSLQPEDAATYYCAGGYGGGRYAFGQGTKVEIKRTVAAPSVFIFPPSDEQLKSGTASVVCLLNNFYPREAKVQWKVDNALQSGNSQESVTEQDSKDSTYSLSSTLTLSKADYEKHKVYACEVTHQGLSSPVTKSFNRGEC",1.7,2.5,2.2,0.13,0.6,0.5,3.8,0.14
"M103205H795-MY180 / M103202L889-SK1 (antibody, human IgG1, kappa, Position 396 variant derived from MY052, expressed with M103202L889-SK1 as light chain) heavy: QVTLKESGPVLVKPTETLTLTCTVSGIDLSHDDISWVRQAPGKGLEWVGIISYAGSTYYASWAKGRLTISKDTSKNQVVLTMTNMDPVDTATYYCARGVPAYSHGGDLWGQGTLVTVSSASTKGPSVFPLAPSSKSTSGGTAALGCLVKDYFPEPVTVSWNSGALTSGVHTFPAVLQSSGLYSLSSVVTVPSSSLGTQTYICNVNHKPSNTKVDKKVEPKSCDKTHTCPPCPAPELLNGPSVFLFPPKPKDTLMISRTPEVTCVVVDVSEEDPEVKFNWYVDGVEVHNAKTKPREEQYNSTYRVVSVLTVLHQDWLNGKEYKCKVSNKALPAPIEKTISKAKGQPREPQVYTLPPSREEMTKNQVSLTCLVKGFYPSDIAVEWESNGQPENNYKTTPSVLDSDGSFFLYSKLTVDKSRWQQGNVFSCSVMHEALHNHYTQKSLSLSP light: DIVMTQSPATLSLSPGERATLSCTSSQSVYHANWLSWFQQKPGQPPKLLIYWASTLAYGVPSRFSGSGSGTDFTLTISSLQPEDAATYYCAGGYGGGRYAFGQGTKVEIKRTVAAPSVFIFPPSDEQLKSGTASVVCLLNNFYPREAKVQWKVDNALQSGNSQESVTEQDSKDSTYSLSSTLTLSKADYEKHKVYACEVTHQGLSSPVTKSFNRGEC",1.2,1.9,1.4,0.12,0.4,0.4,2.4,0.14
